# In publication PMC6384901, “Cyclic Peptide-Based Sirtuin Substrates” (Molecules, 2019):
# B1: human recombinant His6-SIRT3 (Homo sapiens) (protein)
# chain: MAFWGWRAAAALRLWGRVVERVEAGGGVGPFQACGCRLVLGGRDDVSAGLRGSHGARGEPLDPARPLQRPPRPEVPRAFRRQPRAAAPSFFFSSIKGGRRSISFSVGASSVVGSGGSSDKGKLSLQDVAELIRARACQRVVVMVGAGISTPSGIPDFRSPGSGLYSNLQQYDLPYPEAIFELPFFFHNPKPFFTLAKELYPGNYKPNVTHYFLRLLHDKGLLLRLYTQNIDGLERVSGIPASKLVEAHGTFASATCTVCQRPFPGEDIRADVMADRVPRCPVCTGVVKPDIVFFGEPLPQRFLLHVVDFPMADLLLILGTSLEVEPFASLTEAVRSSVPRLLINRDLVGPLAWHPRSRDVAQLGDVVHGVESLVELLGWTEEMRDLVQRETGKLDGPDK
# notes: His6; purchased Cayman Chemical
# B2: human recombinant His6-SIRT2 (Homo sapiens) (protein)
# chain: MAEPDPSHPLETQAGKVQEAQDSDSDSEGGAAGGEADMDFLRNLFSQTLSLGSQKERLLDELTLEGVARYMQSERCRRVICLVGAGISTSAGIPDFRSPSTGLYDNLEKYHLPYPEAIFEISYFKKHPEPFFALAKELYPGQFKPTICHYFMRLLKDKGLLLRCYTQNIDTLERIAGLEQEDLVEAHGTFYTSHCVSASCRHEYPLSWMKEKIFSEVTPKCEDCQSLVKPDIVFFGESLPARFFSCMQSDFLKVDLLLVMGTSLQVQPFASLISKAPLSTPRLLINKEKAGQSDPFLGMIMGLGGGMDFDSKKAYRDVAWLGECDQGCLALAELLGWKKELEDLVRREHASIDAQSGAGVPNPSTSASPKKSPPPAKDEARTTEREKPQ
# notes: as for B1
# Tests used:
# Format in all cases: biochemical, human
# [1] = substrate: CCCCCCCCCCCCCC(=O)NCCCC[C@@H]1NC(=O)[C@H](CCCNC(=N)N)NC(=O)[C@@H](NC(C)=O)CCCCNC(=O)CCCCCCC(=O)NCCCC[C@@H](C(=O)N[C@H](C(N)=O)[C@@H](C)O)NC1=O; assay: HPLC-based sirtuin deacylation activity assay, SIRT3; conditions: other: substrate activity with SIRT3, 50 mM Hepes pH 8.0, 3.5 mM β-NAD+, His6-SIRT3 739 nM, 37 °C, 2 min, HPLC 214 nm, Michaelis-Menten fit
# Description: (§1) The steady-state kinetic parameters (kcat and KM) for the SIRT1/2/3 substrate activities of the purified 5–8 were determined with a HPLC-based sirtuin deacylation activity assay and are recorded in Table 2 and Table 3. As judged by kcat/KM ratios, cyclic peptides 5–8 were all found to be excellent SIRT1 substrates, actually 5, 7, and 8 are all better SIRT1 substrates than the linear hexapeptide-based SIRT1 substrate 3 (depicted in Figure 2) reported in the current literature (kcat/KM = 800 M^−1 s^−1). Cyclic peptides 5–8 were also all found to be better SIRT3 substrates than the linear hexapeptide-based SIRT3 substrate 3 reported in the current literature (kcat/KM = 990 M^−1·s^−1).
# (§2) The following materials were obtained from commercial sources for the in vitro sirtuin deacylation activity assay and the pronase digestion assay, and were used as received. Sigma-Aldrich China: the active human recombinant His6-SIRT1, Trizma, Hepes, β-NAD^+, a 1.0 M solution of MgCl2 (molecular-biology grade), the pronase from Streptomyces griseus; Cayman Chemical (Ann Arbor, MI, USA): the active human recombinant GST-SIRT1, the active human recombinant His6-SIRT2, the active human recombinant His6-SIRT3; TCI Shanghai: DL-dithiothreitol (DTT); Alfa Aesar China: NaCl, KCl.
# (§3) A sirtuin deacylation assay solution contained the following: 50 mM Hepes (pH 8.0), 137 mM NaCl, 2.7 mM KCl, 1 mM MgCl2, 1 mM DTT, β-NAD^+ (~5.6 × KM: 0.5 mM for the SIRT1 and SIRT2 assays, 3.5 mM for the SIRT3 assay), one test compound (5, 6, 7, or 8) with varied concentrations including 0, and a sirtuin (His6-SIRT1 or GST-SIRT1, 243 nM; His6-SIRT2, 297 nM; or His6-SIRT3, 739 nM). An enzymatic reaction was initiated by the addition of a sirtuin at 37 °C and was incubated at 37 °C for 5 min (for the SIRT1 assay) or 2 min (for the SIRT2 and SIRT3 assays) until quenched with the following stop solution: 100 mM HCl and 0.16 M acetic acid. The quenched assay solutions were directly injected into a C18 column (0.46 × 25 cm, 5 μm), and the column was eluted with a gradient of ddH2O containing 0.05% (v/v) TFA and acetonitrile containing 0.05% (v/v) TFA at 1 mL/min and was monitored at 214 nm. Turnover of the limiting substrate was kept at <10%. Stock solutions of the test compounds were all prepared in ddH2O. The integrated product and substrate HPLC peak areas were then used to determine the initial velocities for the sirtuin-catalyzed deacylation reaction at different concentrations of a test compound (5, 6, 7, or 8). The initial velocity-concentration data were analyzed with KaleidaGraph® (Synergy Software, Reading, PA, USA) and the data were fitted to the Michaelis-Menten equation to obtain the kinetic parameters kcat and KM, as recorded in Table 2 and Table 3.
# [2] = substrate: CSCC[C@H](NC(=O)[C@@H]1CCCCNC(=O)CCC(=O)NCCCC[C@H](NC(C)=O)C(=O)N[C@@H](CCCCN)C(=O)N[C@@H](CCCCNC(C)=O)C(=O)N1)C(N)=O; assay: as above; conditions: other: substrate activity with SIRT3, 50 mM Hepes pH 8.0, 3.5 mM β-NAD+, His6-SIRT3 739 nM, 37 °C, 2 min, HPLC 214 nm, Michaelis-Menten fit
# Description: as §1, §2, §3
# [3] = substrate: CSCC[C@H](NC(=O)[C@@H]1CCCCNC(=O)CNC(=O)CCCCCCC(=O)NCC(=O)NCCCC[C@H](NC(C)=O)C(=O)N[C@@H](CCCCN)C(=O)N[C@@H](CCCCNC(C)=O)C(=O)N1)C(N)=O; assay: as above; conditions: other: substrate activity with SIRT3, 50 mM Hepes pH 8.0, 3.5 mM β-NAD+, His6-SIRT3 739 nM, 37 °C, 2 min, HPLC 214 nm, Michaelis-Menten fit
# Description: as §1, §2, §3
# [4] = substrate: CCCCCCCCCCCCCC(=O)NCCCC[C@@H]1NC(=O)[C@H](CCCNC(=N)N)NC(=O)[C@@H](NC(C)=O)CCCCNC(=O)CCCCCCC(=O)NCCCC[C@@H](C(=O)N[C@H](C(N)=O)[C@@H](C)O)NC1=O; assay: HPLC-based sirtuin deacylation activity assay, SIRT2; conditions: other: substrate activity with SIRT2, 50 mM Hepes pH 8.0, 0.5 mM β-NAD+, His6-SIRT2 297 nM, 37 °C, 2 min, HPLC 214 nm, Michaelis-Menten fit
# Description: as §1, §2, §3
# [5] = substrate: CSCC[C@H](NC(=O)[C@@H]1CCCCNC(=O)CCC(=O)NCCCC[C@H](NC(C)=O)C(=O)N[C@@H](CCCCN)C(=O)N[C@@H](CCCCNC(C)=O)C(=O)N1)C(N)=O; assay: as above; conditions: other: substrate activity with SIRT2, 50 mM Hepes pH 8.0, 0.5 mM β-NAD+, His6-SIRT2 297 nM, 37 °C, 2 min, HPLC 214 nm, Michaelis-Menten fit
# Description: as §1, §2, §3
# [6] = substrate: CSCC[C@H](NC(=O)[C@@H]1CCCCNC(=O)CNC(=O)CCCCCCC(=O)NCC(=O)NCCCC[C@H](NC(C)=O)C(=O)N[C@@H](CCCCN)C(=O)N[C@@H](CCCCNC(C)=O)C(=O)N1)C(N)=O; assay: as above; conditions: other: substrate activity with SIRT2, 50 mM Hepes pH 8.0, 0.5 mM β-NAD+, His6-SIRT2 297 nM, 37 °C, 2 min, HPLC 214 nm, Michaelis-Menten fit
# Description: as §1, §2, §3
protein,measurement,setting,value
B1,Km,[1],4.2 ± 0.38 µM
same,kcat,[1],"60.0 ± 2.8 10^−3, s^−1"
same,kcat/Km,[1],(14.3 ± 0.66) × 10^3 M^−1·s^−1
same,Km,[2],34.9 ± 4.04 µM
same,kcat,[2],"155.3 ± 16.6 10^−3, s^−1"
same,kcat/Km,[2],(4.51 ± 1.0) × 10^3 M^−1·s^−1
same,Km,[3],4.5 ± 0.9 µM
same,kcat,[3],"15.8 ± 1.4 10^−3, s^−1"
same,kcat/Km,[3],(3.6 ± 0.4) × 10^3 M^−1·s^−1
B2,Km,[4],37.6 ± 14.4 µM
same,kcat,[4],"90.9 ± 2.62 10^−3, s^−1"
same,kcat/Km,[4],(2.6 ± 0.93) × 10^3 M^−1·s^−1
same,Km,[5],49.7 ± 7.78 µM
same,kcat,[5],"138.9 ± 26.7 10^−3, s^−1"
same,kcat/Km,[5],(2.79 ± 0.1) × 10^3 M^−1·s^−1
same,Km,[6],11.6 ± 2.2 µM
same,kcat,[6],"36.0 ± 4.9 10^−3, s^−1"
same,kcat/Km,[6],(3.2 ± 1.0) × 10^3 M^−1·s^−1
